The values below come from US20260217833A1 (APTEVO RESEARCH AND DEVELOPMENT, published 2026).

The target of experiment [1] is T1, Human PD-L1 full-length (human, UniProt Q9NZQ7 19-290).
T1 construct: also called PDL01021; CHOK1SV/huPDL1
In words: MSD cell binding, CHOK1SV/human PD-L1 cells; x axis without printed unit.

For a further experiment, the target named is T2, Cyno PD-L1 full-length (cynomolgus, UniProt Q9NZQ7 19-290 (human entry)).
T2 construct: also called PDL01022; CHOK1SV/cynoPDL1
In words: MSD cell binding, CHOK1SV/cynomolgus PD-L1 cells; x axis without printed unit.

Another experiment has as its target T3, huPD-L1 ECD AFH (human).
T3 construct: also called PDL01001; recombinant human PD-L1 ectodomain (ECD)
In words: SPR, binder captured on anti-human IgG, PD-L1 ECD injected, 1:1 fit. On the technique in general: Surface plasmon resonance follows binding to a sensor surface in real time, without labels.

The target of experiment [2] is T1, Human PD-L1 full-length. In words: flow cytometry, CHOK1SV/human PD-L1 cells.
The target of the next experiment is T4, human CD40 full-length (human, UniProt P25942 21-277).
T4 construct: Also used for CD40 of Daudi cells, of CD40-expressing HEK293 cells and of the BPS CD40/NFkB HEK293 reporter cells where the row says so; also called CD4001012; CHOK1SV/CD40
The experiment is described as follows: flow cytometry, CHOK1SV/human CD40 cells.

T1 sequence (Q9NZQ7 19-290): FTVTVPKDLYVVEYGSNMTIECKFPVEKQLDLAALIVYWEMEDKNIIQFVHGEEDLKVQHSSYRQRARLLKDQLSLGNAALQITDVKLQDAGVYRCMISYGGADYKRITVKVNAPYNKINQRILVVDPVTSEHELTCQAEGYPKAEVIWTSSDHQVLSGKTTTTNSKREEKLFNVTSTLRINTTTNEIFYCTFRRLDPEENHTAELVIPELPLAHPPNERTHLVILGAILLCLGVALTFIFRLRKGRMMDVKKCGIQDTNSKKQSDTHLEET
T3 sequence (chain, as listed by the source limits assumed): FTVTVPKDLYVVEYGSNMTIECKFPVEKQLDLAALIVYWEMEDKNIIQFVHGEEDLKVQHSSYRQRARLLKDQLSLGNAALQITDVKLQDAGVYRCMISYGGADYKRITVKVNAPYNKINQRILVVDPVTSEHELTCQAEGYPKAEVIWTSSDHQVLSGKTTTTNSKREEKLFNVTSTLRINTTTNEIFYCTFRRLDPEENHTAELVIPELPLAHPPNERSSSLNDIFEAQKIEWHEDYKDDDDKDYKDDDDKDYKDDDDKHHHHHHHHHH
T2 sequence (Q9NZQ7 other isoform, or with tags, fused parts or gaps): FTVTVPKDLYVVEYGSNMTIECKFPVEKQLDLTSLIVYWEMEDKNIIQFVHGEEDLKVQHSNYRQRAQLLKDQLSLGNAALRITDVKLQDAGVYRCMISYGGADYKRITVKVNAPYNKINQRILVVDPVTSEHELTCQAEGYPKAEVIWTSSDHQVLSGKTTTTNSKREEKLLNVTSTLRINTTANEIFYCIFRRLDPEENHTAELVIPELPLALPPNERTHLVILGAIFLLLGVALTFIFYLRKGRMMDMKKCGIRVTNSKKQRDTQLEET

B1: PDL01034 (5F9HL x human IgG1 WT Fc) (Fc fusion)
chain: EVKLVESGGGLVQPGGSRKLSCAASGFTFSDYGMAWVRQAPGKGPEWVAFITSLAYIIFYSDTVTGRFTISRENAKNTLYLEMSSLRSEDTAVYYCARNYGSSPYYFDYWGQGTTLTVSSGGGGSGGGGSGGGGSGGGGSDIQMTQSPSSLSTSLGGKVTITCKASQDINKFISWYQHKPGKGPRLLIHYTSSLQPGIPSRFSGSGSGRDYSFSISNLEPEDIATYYCLQYDNLYTFGGGTKLEIK
notes: Murine anti-PD-L1 scFv (VH-VL) on human IgG1 wild-type Fc; also called PDL01034 (Parent); 5F9 clone PDL01034; not shown: human IgG1 WT Fc
Usually Kd stands for the constant that tells how readily two partners part at equilibrium. A high value points to weaker binding. As usually defined, the koff is a measure of how fast the partners let go of each other. A higher koff goes with a short-lived complex. One may read the kon as the second-order rate constant of association. For B1, the binding result with Human PD-L1 full-length [1] is on record as “binds”. In the experiment with Cyno PD-L1 full-length, the binding result is “binds”. Further, in the experiment with huPD-L1 ECD AFH, the Kd amounted to 0.2 nM, the koff worked out at 0.00024 s⁻¹ and the kon was found to be 1.4e+06 M⁻¹ s⁻¹.

B2: PDL01152 (Fc fusion)
chain: DIQMTQSPSSLSASVGDRVTITCRASQDINKFLSWYQQKPGKAPKLLIHYTSSLQSGVPSRFSGSGSGTDFTLTISSLQPEDFATYYCLQYDNLYTFGQGTKLEIKGGGGSGGGGSGGGGSGGGGSEVQLVESGGGLVQPGGSLRLSCAASGFTFSDYGMAWVRQAPGKGLEWVSFITSLAYIIYYADSVKGRFTISRDNAKNSLYLQMNSLRAEDTAVYYCARNYGSSPYYFDYWGQGTLVTVSS
notes: scFv (VL-VH); also called Humanized 5F9 anti-PD-L1 scFv; not shown: wildtype IgG1 Fc region
In the experiment with huPD-L1 ECD AFH, B2 gave a Kd of 1.1 nM, a koff of 0.0012 s⁻¹ and a kon of 1.1e+06 M⁻¹ s⁻¹.

B3: CD4001080 (bispecific antibody)
Fc-knob x CD40_5B9: EPKSSDKTHTCPPCPAPPAAAPSVFLFPPKPKDTLMISRTPEVTCVVVDVSHEDPEVKFNWYVDGVEVHNAKTKPREEQYNSTYRVVSVLTVLHQDWLNGKEYKCAVSNKALPAPIEKTISKAKGQPREPQVYTLPPSRDELTKNQVSLWCLVKGFYPSDIAVEWESNGQPENNYKTTPPVLDSDGSFFLYSKLTVDKSRWQQGNVFSCSVMHEALHNHYTQKSLSLSPGGGGSPSDVVMTQTPLSLPVSLGDQASISCRSSQSLVHYNGYTYLHWYLQKPGQSPKLLIYKVSNRFSGVPDRFSGSGSGTDFTLKISRVEAEDLGVYFCSQTTHVPLTFGAGTKLELRGGGGSGGGGSGGGGSGGGGSEVMLVESGGGLVKPGGSLKLSCAASGFTFSSYAMSWVRQTPERRLEWVASISSAGTYIYYPDSVKGRFTISRDNAKNILYLQMNSLRSEDTAMYYCARHGNGYDPLWYFDVWGAGTTVTVSS
PDL_5F9 x Fc-Hole x CD40_5B9: EVQLVESGGGLVKPGGSLRLSCAASGFTFSDYGMAWVRQAPGKGLEWVAFITSLAYIIYYADSVKGRFTISRDNAKNSLYLQMNSLRAEDTAVYYCARNYGSSPYYFDYWGQGTLVTVSSGGGGSGGGGSGGGGSGGGGSDIQMTQSPSSLSASVGDRVTITCRASQDINKFLSWYQQKPGKAPKLLIHYTSSLQPGVPSRFSGSGSGTDFTLTISSLQPEDFATYYCLQYDNLYTFGQGTKLEIKEPKSSDKTHTCPPCPAPPAAAPSVFLFPPKPKDTLMISRTPEVTCVVVDVSHEDPEVKFNWYVDGVEVHNAKTKPREEQYNSTYRVVSVLTVLHQDWLNGKEYKCAVSNKALPAPIEKTISKAKGQPREPQVYTLPPSRDELTKNQVSLSCAVKGFYPSDIAVEWESNGQPENNYKTTPPVLDSDGSFFLVSKLTVDKSRWQQGNVFSCSVMHEALHNRFTQKSLSLSPGGGGSPSDVVMTQTPLSLPVSLGDQASISCRSSQSLVHYNGYTYLHWYLQKPGQSPKLLIYKVSNRFSGVPDRFSGSGSGTDFTLKISRVEAEDLGVYFCSQTTHVPLTFGAGTKLELRGGGGSGGGGSGGGGSGGGGSEVMLVESGGGLVKPGGSLKLSCAASGFTFSSYAMSWVRQTPERRLEWVASISSAGTYIYYPDSVKGRFTISRDNAKNILYLQMNSLRSEDTAMYYCARHGNGYDPLWYFDVWGAGTTVTVSS
Consider B3, for which the binding result in the experiment with Human PD-L1 full-length [2] and with human CD40 full-length was “binds” throughout.

B4: CD4001068 (bispecific antibody)
PDL_5F9 x Fc-Knob: EVQLVESGGGLVKPGGSLRLSCAASGFTFSDYGMAWVRQAPGKGLEWVAFITSLAYIIYYADSVKGRFTISRDNAKNSLYLQMNSLRAEDTAVYYCARNYGSSPYYFDYWGQGTLVTVSSGGGGSGGGGSGGGGSGGGGSDIQMTQSPSSLSASVGDRVTITCRASQDINKFLSWYQQKPGKAPKLLIHYTSSLQPGVPSRFSGSGSGTDFTLTISSLQPEDFATYYCLQYDNLYTFGQGTKLEIKEPKSSDKTHTCPPCPAPPAAAPSVFLFPPKPKDTLMISRTPEVTCVVVDVSHEDPEVKFNWYVDGVEVHNAKTKPREEQYNSTYRVVSVLTVLHQDWLNGKEYKCAVSNKALPAPIEKTISKAKGQPREPQVYTLPPSRDELTKNQVSLWCLVKGFYPSDIAVEWESNGQPENNYKTTPPVLDSDGSFFLYSKLTVDKSRWQQGNVFSCSVMHEALHNHYTQKSLSLSPG
CD40_5B9 x Fc-Hole: DVVMTQTPLSLPVSLGDQASISCRSSQSLVHYNGYTYLHWYLQKPGQSPKLLIYKVSNRFSGVPDRFSGSGSGTDFTLKISRVEAEDLGVYFCSQTTHVPLTFGAGTKLELRGGGGSGGGGSGGGGSGGGGSEVMLVESGGGLVKPGGSLKLSCAASGFTFSSYAMSWVRQTPERRLEWVASISSAGTYIYYPDSVKGRFTISRDNAKNILYLQMNSLRSEDTAMYYCARHGNGYDPLWYFDVWGAGTTVTVSSEPKSSDKTHTCPPCPAPPAAAPSVFLFPPKPKDTLMISRTPEVTCVVVDVSHEDPEVKFNWYVDGVEVHNAKTKPREEQYNSTYRVVSVLTVLHQDWLNGKEYKCAVSNKALPAPIEKTISKAKGQPREPQVYTLPPSRDELTKNQVSLSCAVKGFYPSDIAVEWESNGQPENNYKTTPPVLDSDGSFFLVSKLTVDKSRWQQGNVFSCSVMHEALHNRFTQKSLSLSPG
As a reminder, the EC50 (read off the curve) is the concentration needed to bring the measured effect to its halfway point. High values mean lower potency in that assay, low ones higher potency in that assay. As to B4, the binding result with Human PD-L1 full-length [2] is recorded as “binds”. Moreover, in the experiment with human CD40 full-length, the “EC50 (read off the curve)” value was approximately 5 nM.

B5: CD4001077 (bispecific antibody)
PDL_5F9 x Fc-Knob: EVQLVESGGGLVKPGGSLRLSCAASGFTFSDYGMAWVRQAPGKGLEWVAFITSLAYIIYYADSVKGRFTISRDNAKNSLYLQMNSLRAEDTAVYYCARNYGSSPYYFDYWGQGTLVTVSSGGGGSGGGGSGGGGSGGGGSDIQMTQSPSSLSASVGDRVTITCRASQDINKFLSWYQQKPGKAPKLLIHYTSSLQPGVPSRFSGSGSGTDFTLTISSLQPEDFATYYCLQYDNLYTFGQGTKLEIKEPKSSDKTHTCPPCPAPPAAAPSVFLFPPKPKDTLMISRTPEVTCVVVDVSHEDPEVKFNWYVDGVEVHNAKTKPREEQYNSTYRVVSVLTVLHQDWLNGKEYKCAVSNKALPAPIEKTISKAKGQPREPQVYTLPPSRDELTKNQVSLWCLVKGFYPSDIAVEWESNGQPENNYKTTPPVLDSDGSFFLYSKLTVDKSRWQQGNVFSCSVMHEALHNHYTQKSLSLSPG
PDL_5F9 x Fc-Hole x CD40_5B9: EVQLVESGGGLVKPGGSLRLSCAASGFTFSDYGMAWVRQAPGKGLEWVAFITSLAYIIYYADSVKGRFTISRDNAKNSLYLQMNSLRAEDTAVYYCARNYGSSPYYFDYWGQGTLVTVSSGGGGSGGGGSGGGGSGGGGSDIQMTQSPSSLSASVGDRVTITCRASQDINKFLSWYQQKPGKAPKLLIHYTSSLQPGVPSRFSGSGSGTDFTLTISSLQPEDFATYYCLQYDNLYTFGQGTKLEIKEPKSSDKTHTCPPCPAPPAAAPSVFLFPPKPKDTLMISRTPEVTCVVVDVSHEDPEVKFNWYVDGVEVHNAKTKPREEQYNSTYRVVSVLTVLHQDWLNGKEYKCAVSNKALPAPIEKTISKAKGQPREPQVYTLPPSRDELTKNQVSLSCAVKGFYPSDIAVEWESNGQPENNYKTTPPVLDSDGSFFLVSKLTVDKSRWQQGNVFSCSVMHEALHNRFTQKSLSLSPGGGGSPSDVVMTQTPLSLPVSLGDQASISCRSSQSLVHYNGYTYLHWYLQKPGQSPKLLIYKVSNRFSGVPDRFSGSGSGTDFTLKISRVEAEDLGVYFCSQTTHVPLTFGAGTKLELRGGGGSGGGGSGGGGSGGGGSEVMLVESGGGLVKPGGSLKLSCAASGFTFSSYAMSWVRQTPERRLEWVASISSAGTYIYYPDSVKGRFTISRDNAKNILYLQMNSLRSEDTAMYYCARHGNGYDPLWYFDVWGAGTTVTVSS
On to B5, for which the binding result in the experiment with Human PD-L1 full-length [2] and with human CD40 full-length was “binds” each time.

B6: CD4001074 (bispecific antibody)
CD40_5B9 x Fc-Knob: DVVMTQTPLSLPVSLGDQASISCRSSQSLVHYNGYTYLHWYLQKPGQSPKLLIYKVSNRFSGVPDRFSGSGSGTDFTLKISRVEAEDLGVYFCSQTTHVPLTFGAGTKLELRGGGGSGGGGSGGGGSGGGGSEVMLVESGGGLVKPGGSLKLSCAASGFTFSSYAMSWVRQTPERRLEWVASISSAGTYIYYPDSVKGRFTISRDNAKNILYLQMNSLRSEDTAMYYCARHGNGYDPLWYFDVWGAGTTVTVSSEPKSSDKTHTCPPCPAPPAAAPSVFLFPPKPKDTLMISRTPEVTCVVVDVSHEDPEVKFNWYVDGVEVHNAKTKPREEQYNSTYRVVSVLTVLHQDWLNGKEYKCAVSNKALPAPIEKTISKAKGQPREPQVYTLPPSRDELTKNQVSLWCLVKGFYPSDIAVEWESNGQPENNYKTTPPVLDSDGSFFLYSKLTVDKSRWQQGNVFSCSVMHEALHNHYTQKSLSLSPG
CD40_5B9 x Fc-Hole x PDL_5F9: DVVMTQTPLSLPVSLGDQASISCRSSQSLVHYNGYTYLHWYLQKPGQSPKLLIYKVSNRFSGVPDRFSGSGSGTDFTLKISRVEAEDLGVYFCSQTTHVPLTFGAGTKLELRGGGGSGGGGSGGGGSGGGGSEVMLVESGGGLVKPGGSLKLSCAASGFTFSSYAMSWVRQTPERRLEWVASISSAGTYIYYPDSVKGRFTISRDNAKNILYLQMNSLRSEDTAMYYCARHGNGYDPLWYFDVWGAGTTVTVSSEPKSSDKTHTCPPCPAPPAAAPSVFLFPPKPKDTLMISRTPEVTCVVVDVSHEDPEVKFNWYVDGVEVHNAKTKPREEQYNSTYRVVSVLTVLHQDWLNGKEYKCAVSNKALPAPIEKTISKAKGQPREPQVYTLPPSRDELTKNQVSLSCAVKGFYPSDIAVEWESNGQPENNYKTTPPVLDSDGSFFLVSKLTVDKSRWQQGNVFSCSVMHEALHNRFTQKSLSLSPGGGGSPSEVQLVESGGGLVKPGGSLRLSCAASGFTFSDYGMAWVRQAPGKGLEWVAFITSLAYIIYYADSVKGRFTISRDNAKNSLYLQMNSLRAEDTAVYYCARNYGSSPYYFDYWGQGTLVTVSSGGGGSGGGGSGGGGSGGGGSDIQMTQSPSSLSASVGDRVTITCRASQDINKFLSWYQQKPGKAPKLLIHYTSSLQPGVPSRFSGSGSGTDFTLTISSLQPEDFATYYCLQYDNLYTFGQGTKLEIK
For B6, the binding result in the experiment with Human PD-L1 full-length [2] is “binds”. The “EC50 (read off the curve)” value with human CD40 full-length was approximately 2 nM.
